From patent US20040254135, “Modulation of metabolism of steroids and xenobiotics” (published 2004)

Key:
CAR:RXR heterodimer = CAR:RXR heterodimer (UniProt Q14994;P19793 Q14994:1-352,P19793:1-462); assay: EMSA
SXR:RXR heterodimer = SXR:RXR heterodimer (UniProt O75469;P19793 O75469:1-434,P19793:1-462); assay: EMSA
SXR:RXR heterodimer, sequence (O75469 whole entry, chain 1 of 2): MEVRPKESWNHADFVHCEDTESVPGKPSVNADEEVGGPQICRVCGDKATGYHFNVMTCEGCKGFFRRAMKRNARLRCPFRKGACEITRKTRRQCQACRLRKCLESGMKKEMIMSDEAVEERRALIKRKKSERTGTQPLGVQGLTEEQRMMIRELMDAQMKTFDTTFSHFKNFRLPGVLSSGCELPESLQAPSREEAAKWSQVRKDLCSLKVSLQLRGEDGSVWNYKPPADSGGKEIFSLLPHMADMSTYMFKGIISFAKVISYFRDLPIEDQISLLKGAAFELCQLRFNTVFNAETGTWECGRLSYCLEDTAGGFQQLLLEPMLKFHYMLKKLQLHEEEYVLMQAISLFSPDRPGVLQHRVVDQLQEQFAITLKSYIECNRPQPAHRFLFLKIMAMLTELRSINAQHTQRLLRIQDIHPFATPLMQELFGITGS
SXR:RXR heterodimer, sequence (P19793 whole entry, chain 2 of 2): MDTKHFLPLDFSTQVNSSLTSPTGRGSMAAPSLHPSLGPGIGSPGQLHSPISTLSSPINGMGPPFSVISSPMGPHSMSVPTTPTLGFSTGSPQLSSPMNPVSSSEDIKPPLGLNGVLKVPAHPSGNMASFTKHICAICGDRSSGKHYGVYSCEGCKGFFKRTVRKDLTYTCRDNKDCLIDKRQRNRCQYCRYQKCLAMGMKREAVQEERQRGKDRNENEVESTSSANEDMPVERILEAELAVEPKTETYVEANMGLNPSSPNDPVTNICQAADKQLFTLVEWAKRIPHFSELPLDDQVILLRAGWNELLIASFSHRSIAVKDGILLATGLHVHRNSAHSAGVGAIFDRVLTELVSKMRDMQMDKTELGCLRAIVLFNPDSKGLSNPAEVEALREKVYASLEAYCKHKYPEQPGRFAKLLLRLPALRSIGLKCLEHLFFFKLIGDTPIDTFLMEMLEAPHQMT

CAR:RXR heterodimer, sequence (Q14994 whole entry, chain 1 of 2): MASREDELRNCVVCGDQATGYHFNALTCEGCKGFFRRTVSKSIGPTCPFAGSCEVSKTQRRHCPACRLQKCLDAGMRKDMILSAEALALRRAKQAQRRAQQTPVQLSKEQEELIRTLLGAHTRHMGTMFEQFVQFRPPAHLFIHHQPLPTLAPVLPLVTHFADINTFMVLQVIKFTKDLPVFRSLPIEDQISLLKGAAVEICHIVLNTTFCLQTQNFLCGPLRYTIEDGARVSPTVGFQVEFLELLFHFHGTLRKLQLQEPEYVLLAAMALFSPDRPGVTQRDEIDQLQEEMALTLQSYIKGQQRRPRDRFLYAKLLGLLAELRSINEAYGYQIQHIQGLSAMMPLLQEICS
CAR:RXR heterodimer, sequence (P19793 whole entry, chain 2 of 2): as the sequence (P19793 whole entry, chain 2 of 2) above

B1: UGT1A6 DR-3 (dsDNA)
DNA 1: ACTGTAGTTCATAAAGTTCACATGG
DNA 2: CCATGTGAACTTTATGAACTACAGT
CAR:RXR heterodimer
  binding result: binds
SXR:RXR heterodimer
  binding result: binds
